Experimental data: IntAct's records for PubMed 20388642

B1: Ras-related protein Rab-8A (Homo sapiens), P61006 (parent)
chain: MAKTYDYLFKLLLIGDSGVGKTCVLFRFSEDAFNSTFISTIGIDFKIRTIELDGKRIKLQIWDTAGQERFRTITTAYYRGAMGIMLVYDITNEKSFDNIRNWIRNIEEHASADVEKMILGNKCDVNDKRQVSKERGEKLALDYGIKFMETSAKANINVENAFFTLARDIKAKMDKKLEGNSPQGSNQGVKITPDQQKRSSFFRCVLL

Variants of: B1
Settings: with optn_human OPTN

Q: With MAKTYDYLFKLLLIGDSGVGKNCVLFRFSEDAFNSTFISTIGIDFKIRTIELDGKRIKLQIWDTAGQERFRTITTAYYRGAMGIMLVYDITNEKSFDNIRNWIRNIEEHASADVEKMILGNKCDVNDKRQVSKERGEKLALDYGIKFMETSAKANINVENAFFTLARDIKAKMDKKLEGNSPQGSNQGVKITPDQQKRSSFFRCVLL [T22N] as the variant, how does the “effect of a mutation on the interaction” value read?
A: decreasing interaction
